Experiment [1] deals with hLCN2-R-NTD quadruple mutant (hLCN2-R-NTD-QM) (human) (UniProt Q8WUG5). Kind of experiment: ITC; apoNGAL (500 μM) in the syringe, hLCN2-R-NTD form (50 μM) in the cell; 25 °C, 20 mM Tris, pH 7.4, 50 mM NaCl; single binding site fit. Background: Isothermal titration calorimetry measures the heat released or taken up as one component is titrated into another.
For experiment [2], the target named is N-terminal domain of the human lipocalin 2 receptor (hLCN2-R-NTD), wild type (human) (UniProt Q8WUG5). The experiment is described as above.
Experiment [3] concerns the target hLCN2-R-NTD double mutant (hLCN2-R-NTD-DM), Cys-15–Cys-94 mutated out (human) (UniProt Q8WUG5). Described as above.
Experiment [4] deals with hLCN2-R-NTD quadruple mutant (hLCN2-R-NTD-QM) (human) (UniProt Q8WUG5). Kind of experiment: NMR 15N CPMG relaxation dispersion; 15N-labelled hLCN2-R-NTD-QM with 0.05, 0.1 and 0.15 eq of unlabelled NGAL; 25 °C; two-state exchange fit, kex and populations as global parameters for the C-terminal residues.
For experiment [5], the target named is T1, human neutrophil gelatinase-associated lipocalin, hNGAL(C87S) (human, UniProt P80188 21-198, C87S).
T1 construct: human NGAL (LCN2), coding region amplified from pGEX-4T-hNGAL(C87S); The holo form is the same protein loaded with ferric enterobactin (a small molecule); it is told apart by the assay; the wild type was made only for the spin label; also called apoNGAL; LCN2; not shown: His6, N-terminal, cleaved
T1 sequence (P80188 21-198 C107S): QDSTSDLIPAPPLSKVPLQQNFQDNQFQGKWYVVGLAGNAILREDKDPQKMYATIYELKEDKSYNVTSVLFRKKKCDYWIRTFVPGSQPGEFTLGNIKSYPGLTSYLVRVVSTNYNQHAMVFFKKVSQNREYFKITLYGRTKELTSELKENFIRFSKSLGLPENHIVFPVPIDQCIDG
The experiment can be described thus: MST; GFP-hLCN2-R-NTD fixed at 500 nM, apoNGAL varied 0–300 μM; 20 mM Tris/HCl, pH 7.4, 25 °C. The following applies: both partners purified.

Experiment [6] deals with T1, human neutrophil gelatinase-associated …. The experiment can be described thus: MST; GFP-hLCN2-R-NTD fixed at 500 nM, NGAL/[FeIII(Ent)]3- (NGAL loaded with ferric enterobactin) varied 0–300 μM; 20 mM Tris/HCl, pH 7.4, 25 °C. The following applies: both partners purified.

These results are taken from paper PMC4742754, “Biochemical and Structural Characterization of the Interaction between the Siderocalin NGAL/LCN2 (Neutrophil Gelatinase-associated Lipocalin/Lipocalin 2) and the N-terminal Domain of Its Endocytic Receptor SLC22A17*” (The Journal of Biological Chemistry, 2015).

One may read the Kd as the constant that tells how readily two partners part at equilibrium. A low value points to higher affinity. One may read the stoichiometry N as a count of units in the complex or per binding partner.

As for “human neutrophil gelatinase-associated lipocalin, hNGAL(C87S) (from UniProt P80188 21-198) (ligand)”, in experiment [1], the Kd was 8 µM and the dH is -1.4 kcal/mol. Besides, in experiment [2], the Kd came out at 10 µM, the dH is -4.5 kcal/mol and the stoichiometry N turned out to be 1. In experiment [3], the equilibrium dissociation constant (Kd) came out at 9 µM and the dH was -2.1 kcal/mol. In experiment [4], this molecule yielded a kex (0.1 eq of NGAL) of 1300 s⁻¹, a kex (0.15 eq of NGAL) of 1200 s⁻¹ and a population of bound state (0.1 eq of NGAL) of 1%.

B1: GFP-hLCN2-R-NTD (domain or fragment)
chain: MASDPIFTLAPPLHCHYGAFPPNASGWEQPPNASGVSVASAALAASAASRVATSTDPSCSGFAPPDFNHCLKDWDYNGLPVLTTNAIGQWDLVCDLGWQVILEQI
modifications: Limits: printed residues 1-105 are numbered on the 538-aa isoform (NM_020372); the 649-aa entry is taken to carry a 111-residue N-terminal extension (649-538), so offset +111 (Cys15/59/70/94 = …)
As for B1, the values for the equilibrium dissociation constant (Kd) in experiment [5] and in experiment [6] were 6.6 µM and 20.7 µM, respectively.
